Laboratory results published in US20230312724A1 (KADMON, published 2023).
Like-named read-outs stand apart in the source and are kept apart here.

Assays:
[1] = target: T1, mouse B7-H4-Fc (mouse; human); experiment: ELISA, coated mB7-H4-Fc (title on the sheet: Binding to mB7H4-Fc)
T1 construct: also called mB7-H4-Fc; mB7-H4-hFc
Method: (§1) ELISA experiments were performed to determine binding to hB7-H4-Fc (FIG. 4A), hB7-H4-his (FIG. 4B), hB7-H4 IgV domain (FIG. 4C), and mB7-H4 IgV domain (FIG. 4D). Flow cytrometry experiments were performed to determine binding to CHO cells expressing hB7-H4 (FIG. 4E) or mB7-H4 (FIG. 4F). […] A cross-reactive IgV binding antibody was used as a control.
(§2) About 1-2 μg/ml of human or mouse B7-H4-Fc (or his-tagged) was immobilized on ELISA plates (Immuno 2HB, Thermo scientific, cat #3455) at 4° C. overnight. After blocking the plates with 3% PBS+milk, serial diluted antibodies were added to the blocked plates and incubated at RT for 1-1.5 h. After washing the plates with PBS-T (0.05%), horse radish peroxidase (HRP)-conjugated antibody targeting the hFab was added to the plate. Signals were developed by adding 3,3′,5,5′-Tetramethylbenzidine (TMB (followed 1N of H₂SO₄ to stop the reaction. The OD at 450 nm was read by ELISA plate reader (Infinite M1000 from TECAN). GraphPad from Prism was used to plot OD450 vs. antibody concentration curve and to calculate the EC50 values.

[2] = target: T2, human B7-H4-Fc (human); experiment: ELISA, coated hB7-H4-Fc
T2 construct: also called hB7-H4-Fc; hB7-H4 Fc
T2 sequence (chain, as listed by the source): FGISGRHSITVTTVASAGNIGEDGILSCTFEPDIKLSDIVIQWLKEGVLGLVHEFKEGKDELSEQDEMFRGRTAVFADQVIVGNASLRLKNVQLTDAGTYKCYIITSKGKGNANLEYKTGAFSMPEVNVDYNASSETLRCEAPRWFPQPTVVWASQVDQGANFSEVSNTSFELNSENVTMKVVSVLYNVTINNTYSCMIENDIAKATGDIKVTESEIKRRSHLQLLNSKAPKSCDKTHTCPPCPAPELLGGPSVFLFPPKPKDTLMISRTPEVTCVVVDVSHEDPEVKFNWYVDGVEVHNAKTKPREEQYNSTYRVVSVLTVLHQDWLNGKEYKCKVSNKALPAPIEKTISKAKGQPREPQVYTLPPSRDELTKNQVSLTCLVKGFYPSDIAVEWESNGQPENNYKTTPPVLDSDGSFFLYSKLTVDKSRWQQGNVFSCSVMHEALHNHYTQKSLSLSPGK
Method: as §1, §2

[3] = target: T3, IgV domain of mouse B7-H4-Fc (mouse; human); experiment: ELISA, coated mB7-H4 IgV domain
T3 construct: also called mB7-H4 IgV domain
T3 sequence (chain, as listed by the source): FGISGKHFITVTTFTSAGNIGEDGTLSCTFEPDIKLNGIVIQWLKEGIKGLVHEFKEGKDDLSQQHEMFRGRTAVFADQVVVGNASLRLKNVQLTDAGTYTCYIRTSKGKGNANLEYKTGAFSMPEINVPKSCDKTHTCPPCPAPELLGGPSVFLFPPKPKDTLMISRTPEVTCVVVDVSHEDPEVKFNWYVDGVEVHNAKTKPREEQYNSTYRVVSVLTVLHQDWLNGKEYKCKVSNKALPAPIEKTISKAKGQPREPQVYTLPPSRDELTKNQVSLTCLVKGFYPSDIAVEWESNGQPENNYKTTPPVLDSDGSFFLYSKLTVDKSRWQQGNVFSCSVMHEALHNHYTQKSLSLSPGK
Method: as §1, §2

[4] = target: T4, mouse B7-H4-his (mouse, UniProt Q7TSP5 25-257); experiment: SPR (Biacore)
T4 construct: also called mB7-H4-his; mB7-H4-His; not shown: his tag
T4 sequence: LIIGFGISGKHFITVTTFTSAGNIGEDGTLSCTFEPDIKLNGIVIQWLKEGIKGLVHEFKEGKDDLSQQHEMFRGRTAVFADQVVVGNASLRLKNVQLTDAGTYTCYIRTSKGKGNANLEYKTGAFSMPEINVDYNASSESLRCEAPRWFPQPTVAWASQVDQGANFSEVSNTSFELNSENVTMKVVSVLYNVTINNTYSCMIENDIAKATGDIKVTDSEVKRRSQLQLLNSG
Method: (§3) Surface plasmon resonance experiments were performed using a Biacore T200 instrument equipped with CM5 sensor chips. The system was equilibrated in running buffer HBS-EP pH 7.4. The ligands were immobilized using amine-coupling chemistry. The surfaces of flow cells one through four were activated for 5 min using an amine coupling kit at a flow rate of […]. The ligands (human B7-H4-Fc, human B7-H4-hism and mouse B7-H4-Fc; at a concentration of 5 μg/ml in 10 mM sodium acetate, pH 5.0) were immobilized at a density of 50-100 RU on flow cell 2, 3, 4 respectively. Flow cell 1 was left blank to serve as a reference surface. All flow cell surfaces were blocked with a 5 min injection of 1 M ethanolamine, pH 8.0. To collect kinetic binding data, the respective analyte (diluted in 1×HBS-EP buffer, pH 7.4) was injected over the four flow cells at concentrations of 100 nM to 0.1 nM at a flow rate of […] and at a temperature of 25° C. The protein complex was allowed to associate and dissociate for 180 seconds and 1000 or 1200 seconds, respectively. The surfaces were regenerated with a 30 second injection of 1.5 M NaCl/0.05 M NaOH. The data were fit to a simple 1:1 interaction model using the Langmuir fit option available within the Biaevaluaton software
(§4) The kinetics for binding of the different antibodies to their targets were examined using Biacore analysis.

[5] = target: T5, human B7-H4-his (human, UniProt Q7Z7D3 25-259); experiment: SPR (Biacore)
T5 construct: also called hB7-H4-his; hB7-H4 his; not shown: his tag
T5 sequence: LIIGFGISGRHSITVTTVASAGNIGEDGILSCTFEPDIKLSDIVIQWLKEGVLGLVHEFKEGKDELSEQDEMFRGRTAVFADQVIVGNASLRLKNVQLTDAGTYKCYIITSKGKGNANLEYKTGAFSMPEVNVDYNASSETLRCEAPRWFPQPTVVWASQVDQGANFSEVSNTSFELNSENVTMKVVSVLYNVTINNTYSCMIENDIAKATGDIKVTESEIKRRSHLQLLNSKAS
Method: as §3, §4

[6] = target: T2, human B7-H4-Fc; experiment: SPR (Biacore)
Method: as §3, §4

[7] = target: T6, mB7-H4 (soluble mouse B7-H4, construct not named) (mouse, UniProt Q7TSP5 25-257, limits assumed); experiment: summary of ELISA and flow cytometry
T6 sequence: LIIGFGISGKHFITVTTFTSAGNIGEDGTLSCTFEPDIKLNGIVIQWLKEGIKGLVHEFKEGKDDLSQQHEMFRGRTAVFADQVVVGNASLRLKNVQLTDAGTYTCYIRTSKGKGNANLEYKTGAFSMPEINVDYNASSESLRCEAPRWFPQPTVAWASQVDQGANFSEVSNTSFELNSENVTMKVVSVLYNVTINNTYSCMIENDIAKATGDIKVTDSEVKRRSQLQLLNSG

[8] = target: T1, mouse B7-H4-Fc; experiment: ELISA, coated mB7-H4-Fc
Method: as §2

[9] = target: T3, IgV domain of mouse B7-H4-Fc; experiment: ELISA, coated mB7-H4 IgV domain; remark: listed apart in the source
Method: as §2

[10] = target: T2, human B7-H4-Fc; experiment: ELISA, coated hB7-H4-Fc; remark: listed apart in the source
Method: as §2

[11] = target: T1, mouse B7-H4-Fc; experiment: SPR (Biacore)
[12] = target: T4, mouse B7-H4-his; experiment: SPR (Biacore); remark: listed apart in the source
[13] = target: T7, IgV domain of human B7-H4-Fc (human); experiment: ELISA, coated hB7-H4 IgV domain
T7 construct: also called hB7-H4 IgV domain
T7 sequence (chain, as listed by the source): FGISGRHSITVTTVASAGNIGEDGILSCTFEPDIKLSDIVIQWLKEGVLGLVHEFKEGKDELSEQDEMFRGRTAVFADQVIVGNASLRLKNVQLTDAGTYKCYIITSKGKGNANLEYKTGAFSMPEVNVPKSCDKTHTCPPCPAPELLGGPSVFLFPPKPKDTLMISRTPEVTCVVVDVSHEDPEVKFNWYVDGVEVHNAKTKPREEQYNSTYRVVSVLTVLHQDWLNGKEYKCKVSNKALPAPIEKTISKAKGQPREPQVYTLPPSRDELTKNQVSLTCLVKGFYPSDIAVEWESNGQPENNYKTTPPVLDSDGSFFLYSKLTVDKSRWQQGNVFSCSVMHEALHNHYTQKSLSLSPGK
Method: as §2

[14] = target: T8, mouse B7-H4 expressed on cells (mouse, UniProt Q7TSP5 25-257); experiment: flow cytometry, CHO cells expressing mB7-H4
T8 construct: also called cellular mB7-H4; mB7-H4/CT26
T8 sequence: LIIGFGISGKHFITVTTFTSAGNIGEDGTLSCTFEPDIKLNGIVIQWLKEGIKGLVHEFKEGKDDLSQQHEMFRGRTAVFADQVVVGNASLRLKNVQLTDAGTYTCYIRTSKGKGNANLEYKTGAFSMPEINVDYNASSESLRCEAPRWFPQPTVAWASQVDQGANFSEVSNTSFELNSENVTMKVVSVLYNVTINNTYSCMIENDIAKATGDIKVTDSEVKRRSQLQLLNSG
Method: (§5) ELISA experiments were performed to determine binding to hB7-H4-Fc (FIG. 3A), hB7-H4-his (FIG. 3B), mB7-H4-Fc (FIG. 3C), and hB7-H4 IgV domain (FIG. 3D). Flow cytometry experiments were performed to determine binding to CHO cells expressing hB7-H4 (FIG. 3E) or mB7-H4 (FIG. 3F).
Cells were harvested, washed once, and then re-suspended to the concentration of 1×10⁶ cells/ml in ice cold FACS Buffer. 25 μl of cell suspension was added to each well of a 96-well round-bottom microliter plate. Serially diluted antibodies or fusion proteins were added to each well and incubated for 1 hour at 4° C. Cells were washed three times by centrifugation at 1500 rpm for 5 minutes, and then stained with secondary antibody (1:200 dilution) for 30 min at 4° C. in the dark. Cells were washed once, re-suspended in 100 μl PBS buffer and then analyzed using Guava Flow Cytometry EasyCyte system.

[15] = target: T1, mouse B7-H4-Fc; experiment: ELISA, coated mB7-H4-Fc; remark: listed apart in the source
Method: as §5, §2

T1 sequence (chain, as listed by the source): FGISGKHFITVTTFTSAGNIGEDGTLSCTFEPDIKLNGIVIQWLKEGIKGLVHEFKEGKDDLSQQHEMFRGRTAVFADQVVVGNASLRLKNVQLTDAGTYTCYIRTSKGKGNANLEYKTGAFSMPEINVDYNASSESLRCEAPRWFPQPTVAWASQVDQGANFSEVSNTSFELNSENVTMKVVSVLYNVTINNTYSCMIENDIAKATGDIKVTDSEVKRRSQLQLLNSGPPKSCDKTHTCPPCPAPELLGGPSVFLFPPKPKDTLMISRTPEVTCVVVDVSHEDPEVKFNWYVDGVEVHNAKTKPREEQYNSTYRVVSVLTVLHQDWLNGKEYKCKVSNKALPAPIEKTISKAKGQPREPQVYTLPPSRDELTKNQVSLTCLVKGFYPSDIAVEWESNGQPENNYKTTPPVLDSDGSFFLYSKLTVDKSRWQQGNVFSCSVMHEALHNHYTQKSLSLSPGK

B1: 3D1/3D1 (antibody, human IgG1, V domains shown)
VH: QVQLVQSGAEVKKPGSSVKVSCKASGYSFISYAITWVRQAPGQGLEWIGGINPIFGTAKYAQKFQGRVTITADESTSTAYMELSSLRSEDTAVYYCAKGQALIQHWGQGTLVTVSS
VL: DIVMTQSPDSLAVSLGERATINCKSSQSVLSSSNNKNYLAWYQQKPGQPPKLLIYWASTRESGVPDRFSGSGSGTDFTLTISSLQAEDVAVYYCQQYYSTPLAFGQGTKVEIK
Question: Does B1 bind [1]?
Answer: Result: no binding (tested: log 0.3 ug/ml (about 2 ug/ml))

Question: And the “EC50 (read off the curve)” value [2]?
Answer: The value was roughly 0.009 µg/mL.

Question: Does B1 bind [3]?
Answer: Result: no binding

Question: Does B1 bind [4]?
Answer: Result: no binding

Question: What about the Kd [5] of the same binder?
Answer: The Kd was 28.5 nM.

Question: And the Kd [6]?
Answer: Its Kd is 2.23 nM.

Question: Does B1 bind [7]?
Answer: Result: no binding

B2: 5E4/5E4 (antibody, human IgG1, V domains shown)
VH: QVQLVQSGAEVKKPGASVKVSCKASGYTFTSYDINWVRQAPGQGLEWMGWMNPNSGNTGYAQKFQGRVTMTRDTSTSTVYMELSSLRSEDTAVYYCARGELWFGEFDYYYYYGMDVWGQGTTVTVSS
VL: DIQMTQSPSSLSASVGDRVTITCRASQSISSYLNWYQQKPGKAPKLLIYGASSLQSGVPSRFSGSGSGTDFTLTISSLQPEDFATYYCQQADRIPFTFGRGTKVEIK
Question: Which “EC50 (read off the curve)” value [8] does the source give for B2 here?
Answer: Its value is roughly 0.1 nM.

Question: Does B2 bind [9]?
Answer: Result: no binding (tested: 20 nM)

Question: What about the “EC50 (read off the curve)” value [10] of the same binder?
Answer: The value was roughly 0.1 nM.

Question: And the Kd [11]?
Answer: Its Kd is 14.1 nM.

Question: What about the Kd [12] of the same binder?
Answer: Its Kd is 9.09 nM.

Question: What about the Kd [5] of the same binder?
Answer: Its Kd is 10 nM.

Question: And the Kd [6]?
Answer: The Kd was 11.7 nM.

Question: Does B2 bind [13]?
Answer: Result: no binding (tested: 20 nM)

B3: 1A12/1A12 (antibody, human IgG1, V domains shown)
VH: EVQLLESGGGLVKPGGSLRLSCAASGFTFSSYAMHWVRQAPGKGLEWVAVISYDGSNKYYADSVKGRFTISRDDSKNTLYLQMNSLKTEDTAVYYCARHGWDAFDIWGQGTLVTVSS
VL: DIQMTQSPSSLSASVGDRVTITCRASQDISNRLNWYQQKPGKAPKLLIYLASSLQGGVPSRFSGSGSGTDFTLTISSLQPEDFATYYCQQAISFPLTFGGGTKVEIK
Question: Which results are given for B3?
Answer: binding result [14]: no binding (tested: axis value -7 (log scale labelled nM)); binding result [15]: no binding (tested: axis value -8 (log scale labelled nM)); binding result [4]: no binding; Kd [5]: 2.47 nM; Kd [6]: 3.57 nM; binding result [7]: no binding

B4: 6C3/6C3 (antibody, human IgG1, V domains shown)
VH: EVQLLESGGGLVQPGGSLRLSCAASGFTFSSYAMHWVRQAPGKGLEWVASISGTGFTTRYADSVKGRFTISRDNSKNTLYLQMNSLRAEDTAVYYCARGGWFRDTPVDYWGQGTLVTVSS
VL: DIVMTQSPLSLPVTPGEPASISCRSSQSLLHSNGYNYLDWYLQKPGQSPQLLIYGASSLRSGVPDRFSGSGSGTDFTLKISRVEAZDVGVYYCMQASHWPPTFGQGTRLEIK
notes: The VL holds a letter Z
Question: Does B4 bind [14]?
Answer: Result: no binding (tested: axis value -7 (log scale labelled nM))

Question: Does B4 bind [1]?
Answer: Result: no binding (tested: log 0.3 ug/ml (about 2 ug/ml))

Question: What about the “EC50 (read off the curve)” value [2] of the same binder?
Answer: The value was roughly 0.03 µg/mL.

Question: Does B4 bind [3]?
Answer: Result: no binding

Question: Does B4 bind [4]?
Answer: Result: no binding

Question: What about the Kd [5] of the same binder?
Answer: The Kd was 6.3 nM.

Question: And the Kd [6]?
Answer: Its Kd is 10.9 nM.

Question: Does B4 bind [7]?
Answer: Result: no binding

B5: 1F11/1F11 (antibody, human IgG1, V domains shown)
VH: QVQLVQSGAEVKKPGSSVKVSCKASGDTFTTYQIHWVRQAPGQGLEWMGGIMPIFGTTKYAQNFQGRVTITADESTSTAYMELSSLRSEDTAVYYCARRNYGMDVWGQGTTVTVSS
VL: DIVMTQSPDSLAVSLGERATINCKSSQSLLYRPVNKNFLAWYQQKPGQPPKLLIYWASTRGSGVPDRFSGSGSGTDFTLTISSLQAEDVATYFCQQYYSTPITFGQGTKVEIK
Question: Does B5 bind [14]?
Answer: Result: no binding (tested: axis value -7 (log scale labelled nM))

Question: Does B5 bind [15]?
Answer: Result: no binding (tested: axis value -8 (log scale labelled nM))

Question: Does B5 bind [4]?
Answer: Result: no binding

Question: What about the Kd [5] of the same binder?
Answer: The Kd was 1.11 nM.

Question: And the Kd [6]?
Answer: The Kd was 1.66 nM.

Question: Does B5 bind [7]?
Answer: Result: no binding
